Reference: the NTF2 design screens of Basanta et al. (2020)

Experiment: protease stability score; higher = more stable; yeast display proteolysis, trypsin and chymotrypsin;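 note: relative to predicted unfolded state with 0 unfolded-like and 1 meaning tenfold more protease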

| Sequence | protease stability score |
| --- | --- |
| DEDTEQAERVSHIMLHLYHTGDEEKFNHLADPNVRVEVNGVEIIGRHAFMKHLREIRLHDLRIEEVHIRVFNGRLRIEIKGRMDGHFNGVTKRTEVDILIIVLKVDGRWHVHSFSETIH | 1.6 |
| DESEESSKEAWRLLLEMWKTGDEDEYSRMIDPNVRIEIGDKHFHGMEHASKRLQTFLKKLGFKHFRMILRDKDSQGNKIEIDLQIDIHQGDYHIHRRVTLILVKVDGKWSVESHHVI | 1.68 |
| DEEEKRERKMAEIWMKSLLTGDEDTLSRLADPNVRNVLIIDGRELNLHGRELMHESLRHLRIEHIRIDEYSIVNGVFHANTTVHGVVGDKRTTVETRIHLWIFDGKFHTIIIIIS | 1.03 |
| DTDQTLFEDYAKMYMKDLLTGDFESIEKYADPRVQVHIGDKEIHGREIFVKYLWEHNEQVDHRQFHFKDVDHFDGKIHVHMEMHIDVNGKLINEKLHVIIWKFNGRWIMKSVHHR | 0.78 |
| SEEEEELKRALKIIIEVMLTGDEKTHHELADPHARLEIHQGNYIEHQHGREIVDKVLRDWIEKLGIDHLHLERVDKQGNKLFVHVHVKVGDKHSKLDIVASKVDGRWVLHEVRIIDE | 1.84 |
| SEDEEEAERFLRMFFELIRTGDERTIERLLDPHVRIDIDGRDIHGRERAQEHVQHWYRHIRIEDDQIKEFHIQGNKVEHHGRRRGSFNGVTYEVTVHETVLKVDGVWYMKEVHVR | 0.891 |
| DEDTEEWRHLLEEYREFIETGDEDYLRTMLDPHVRVVVNGRDHHGWKAFNFMLRHIRVRHVHIHDIRLFNGQVEVDSRIDGIVNGRRLIFRLDIVAFKIDGQWIAQSFTII | 1.65 |
| SEEEELLRRLFELFYKIWHTGDFRSLYENADPNTQLDVGDKRFHGMEVVIEALRQIWEKFGFKVELIDEHHVINGQINMDGLLDINGKKMKTHINLRLIDGVMKTIRIDIR | 0.049 |
| HEHEELLREYVERLLEIWRTGDEEKFMKNADPNVRIVYGDKDVHGREIWVEHFKRLFEELGFKYIDLRRVELINGVLHVHGNWNVNGRERKTELEFKIIDGRITSVQIRVH | 1.27 |
| DKTEEDAKRWAEHFSHNMETGNEEKIIDLADPNTRLEVNGRHVHGREEFSRFWKELSDRVDHIRIQITRISIIGDKIRIDSRIFLHINGKEMIVESVLISEKVNGRWMMREIDIR | 1.84 |
| DETTEIQEKLAKELMRLLLTGNEEEIMKNADPDVREHVLVDGKHINNIGREEVHRVRRELLEKVKNLRIRINRVEIQGEKVRMETTLHIDGQDIHVIYIFIIINGRIKEVHIEIR | 0.708 |
| DEKHELTKRLVELFLHAMHTGNEDLLHEYMDPNVKLVVNGQEHHGRELANSVIRRMIEELRLKDSKIKDIEFQGEKVHLDVHLHFRQGDKHITLDARIILLKVDGRWVIESLIFH | 1.76 |
| DEREEDAREAEEIILEDLRTGDWERISRNFDPNVRMHVGDKKYHGREDAIREIKRLMSDMGIKHHSITDSRLQGEWLFLHVEVHFNGRTHDVEIIMIKVNGKWVFKEVRIG | 1.99 |
| SEEEQELYRTAKLMLESMTTGNEELNKRLADPNVRIHWNGVENHGWRIFRENLEELRIHLKDWRFRRFDLYNGVALLDIEVQIDIEIGDKRIEYETQTILLLFVVNGRIKSISMRIL | 1.07 |
| DEEERLEREIVDHLWTNWYTGDEERMEELADPNVRLEINIGDKHIRLHGRHELLRHLHEWKERFKNIKIRLHDYRVIDGRVHLHVVYRFDGRHKTMHIELYIVNGRIKEIIHRES | 1.66 |
| SEDIELVHNIMEHMAKAFTTGDERHLLNLFDPNVRFMINGQNYVGWEHLINWIEHIRIKRVDLRINDVKLIGDKLHIHGRFIVRGQIDGREIDRVEDTRINFQKINGRWIIEELHFV | 2.61 |
| DDENKFWKEFMDIWVRSLETGNEEELAKLIDPHARLHVNGVENHGREIVLKWFHHHLKHAGVDHRTFHDMRVFDGVNFIDGTLHVNGVTREIRLKVYVVNGVVESEEVRIH | 1.03 |
| SEEEQHLEKMAEDLLHFILTGDEEAMRKMADPTVRLHLHIGDKEERYHGRRDVVRWFHEWVKKVKGMTIEIKRVKVFDGRIFVDGILEINGVKVRVHLITDVIDGKLTRTEERIE | 1.49 |
| DELEKLLRYWLREFFDALLTGDEEIFTRYMDPEARLIVDGVEYHGREEVLKHLRDKLREIRIKDYVIHSLDFVNGRIHVDVRQDVVIGEKREKTRLHIHIDVIDGKNHELDIEWR | 2.1 |
| DELNEITHKFMHEFLRAELTGDWEELHRMLDPHARYIAHIDGREIHFIGRERVLKFMEEWLRRVKNVRIQINDHRVQGDYNHIDGKLKINGKTHDVHIELVMVDGRNHEIHVFIH | 1.61 |
